Key:
HLA-A*0201 [1] = target: HLA-A*0201 (human); test: cell-based or functional assay
HLA-A*0201 [2] = target: HLA-A*0201 (human); test: cell-based or functional assay; remark: listed apart in the source

EVDPIGHLY [MAGE-3 TRAP 168-176 peptide EVDPIGHLY]
Competitor [µM] 50% (HLA-A*0201 [1]): > 100 µM | Relative competitor activity (HLA-A*0201 [1]): < 0.6 ratio to SEQ ID NO: 2

ILTVILGVL [Melan-A 32-40 nonapeptide ILTVILGVL]
Relative Competitor Activity, Exp3 (HLA-A*0201 [2]): 2 ratio to SEQ ID NO: 2

— patent US20040152193A1 (LUDWIG INSTITUTE FOR CANCER RESEARCH, published 2004)
